The binders below were run against T1, recombinant human CD137/Fc (human, UniProt Q07011 24-186) (assay: ELISA, plate coated with recombinant human CD137/Fc at 2 µg/mL, antibody at about 1 µg/mL (single concentration), HRP anti-human lambda, OD 450 nm).
T1 construct: Coated on the ELISA plate at 2 µg/mL; not shown: Fc part
Method: A Maxisorp plate was coated with recombinant human CD137/Fc or mouse CD137/Fc at 2 μg/mL at 4° C., overnight. The plate was blocked for 1 hour at room temperature, washed 3 times with PBS-Tween (PBST), then anti-CD137 antibodies (˜1 μg/mL) diluted in casein were added and incubated for 30 min with shaking. The plate was washed 3 times with PBST, horseradish peroxidase (HRP)-conjugated mouse anti-human Lambda (1:1000 in casein) was added, then 3,3′,5,5′-Tetramethylbenzidine (TMB) was added as substrate and developed about 5 min. 2M H₂SO₄ was used to stop the reaction and the OD was read at 450 nm.

binding result	Binder
binds	anti-CD137 antibody MB3 (antibody, V domains shown, IgG class, variant of D6) VH: QMQLVQSGAEVKKPGASVKVSCKASGYQMRGYYMHWVRQAPGQGLEWMGWINPNSGGTNYAQKFQGRVTITRDTSASTAYMELSSLRSEDTAVYYCAREGEAVGLDLDYWGQGTLVTVSS VL: SYELTQPPSVSVAPGKTARITCGGNNIGSKSVHWYQQKPGQAPVLVIYYDSDRPSGIPERFSGSNSGNTATLTISRVEAGDEADYYCQVWDSSSVVFGGGTQLTVL
binds	anti-CD137 antibody MSC8 (antibody, V domains shown, IgG class, variant of D6) VH: QMQLVQSGAEVKKPGASVKVSCKASGYNFGGYYMHWVRQAPGQGLEWMGWVNPKSGGTNYAQKFQGRVTITRDTSASTAYMELSSLRSEDTAVYYCAREGEAVGLDLDYWGQGTLVTVSS VL: SYELTQPPSVSVAPGKTARITCGGNNIGSKSVHWYQQKPGQAPVLVIYYDSDRPSGIPERFSGSNSGNTATLTISRVEAGDEADYYCQVWDSSSVVFGGGTQLTVL
binds	anti-CD137 antibody MB12 (antibody, V domains shown, IgG class, variant of D6) VH: QMQLVQSGAEVKKPGASVKVSCKASGYSLEGYYMHWVRQAPGQGLEWMGWINPNSGGTNYAQKFQGRVTITRDTSASTAYMELSSLRSEDTAVYYCAREGEAVGLDLDYWGQGTLVTVSS VL: SYELTQPPSVSVAPGKTARITCGGNNIGSKSVHWYQQKPGQAPVLVIYYDSDRPSGIPERFSGSNSGNTATLTISRVEAGDEADYYCQVWDSSSVVFGGGTQLTVL
